In US12604903B2 (priority 2019, dated 2026):

B1: TKPCQSDKDCKKFACRKPKVPKCINGFCKCVRAPKKVEPTKPCQSDKDCKKFACRKPKVPKCINGFCKCVR (protein)
chain: TKPCQSDKDCKKFACRKPKVPKCINGFCKCVRAPKKVEPTKPCQSDKDCKKFACRKPKVPKCINGFCKCVR
notes: two NCR13 monomers linked in tandem by the APKKVEP spacer peptide from MtDef5 defensin, 71 amino acids
What does the source list for B1?
growth inhibition of P. capsici (in words) (Phytophthora capsici): inhibited the growth; Phytophthora capsici MIC (Phytophthora capsici; in vitro growth inhibition): 3 µM; IC50 (Phytophthora capsici; read-out: Phytophthora capsici IC50, in vitro growth inhibition): 1500 nM; antifungal activity against A. brassicicola (in words) (Alternaria brassicicola): significantly more active; Alternaria brassicicola MIC (Alternaria brassicicola; in vitro growth inhibition): 1.5 µM; IC50 (Alternaria brassicicola; read-out: Alternaria brassicicola IC50, in vitro growth inhibition): 750 nM
